Biological target: TNFR2 on human cells (Kym-1 cells; human CD3+ T cells) (human) (UniProt P20333)
Experiment: cell-based or functional assay

Sequence of TNFR2 on human cells (Kym-1 cells; human CD3+ T cells) (human) (P20333 23-461): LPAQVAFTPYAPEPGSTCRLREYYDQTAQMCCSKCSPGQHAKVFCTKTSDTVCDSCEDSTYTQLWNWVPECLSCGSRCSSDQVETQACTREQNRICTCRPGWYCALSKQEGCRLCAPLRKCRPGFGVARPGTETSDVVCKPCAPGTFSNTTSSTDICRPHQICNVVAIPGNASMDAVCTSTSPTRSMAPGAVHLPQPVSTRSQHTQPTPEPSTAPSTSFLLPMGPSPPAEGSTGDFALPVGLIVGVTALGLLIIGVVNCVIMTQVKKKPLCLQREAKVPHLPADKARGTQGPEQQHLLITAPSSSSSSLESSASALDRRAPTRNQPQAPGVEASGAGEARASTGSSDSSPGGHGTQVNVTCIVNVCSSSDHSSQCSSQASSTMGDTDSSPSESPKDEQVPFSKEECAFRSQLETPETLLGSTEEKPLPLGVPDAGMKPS

Substance | EC50 of Kym-1 cell viability (crystal violet assay after 16 h) | EC50 values (nM) of cell death induction using Kym-1 cells
scTNFR2-Fc-scTNFR2 (Fc fusion) | 8.5 µM | 
VASP-scTNFR2 (ligand) | 7 µM | 
human single-chain TNF variant (D143N/A145R, scTNFR2) (from UniProt Q8HZD9 77-232) (ligand) |  | 0.347 nM

Reference: patent US20210395323A1
